Test results as given in patent US20150087577A1 (POLYPHOR, published 2015).
*1 amine or outer side, *2 acyl side, *3 side chain or, on linkers, in order; H or OH if unused. Bridges are numbered along the chain shown (N, C = ends). Primed or numbered codes have the meaning given here. [ ]: non-standard residue; d: D form. A8″‑42 = template L-Pro residue whose 4-amino group is acylated with CH3-(OCH2CH2)2-OCH2-CO (2-[2-(2-methoxyethoxy)ethoxy]acetyl), per the notes; (Pip)G = N-{3-[1'-(4'-methylpiperazinyl)]-propyl}-glycine, CN1CCN(CCCN(CC(=O)[*:2])[*:1])CC1; IsOrn = L-(N',N'-diisobutyl)-ornithine, CC(C)CN(CCC[C@H](N[*:1])C(=O)[*:2])CC(C)C; N(3-imidazol-1-ylpropyl)Gly = O=C(O)CNCCCn1ccnc1; Phe(4-F) = N[C@@H](Cc1ccc(F)cc1)C(=O)O; 2Nal = N[C@@H](Cc1ccc2ccccc2c1)C(=O)O; 4Pal = N[C@@H](Cc1ccncc1)C(=O)O; Cit = NC(=O)NCCC[C@H](N)C(=O)O; NMeK = CN[C@@H](CCCCN)C(=O)O; Orn = NCCC[C@H](N)C(=O)O

B1: Example 126 (peptide)
peptide: cyclo(YR[Cit]CRG[dP]R[(Pip)G][2Nal]CY[Cit]K[dP]P)
modifications: disulfide 4-11
SMILES: CN1CCN(CCCN2CC(=O)N[C@@H](Cc3ccc4ccccc4c3)C(=O)N[C@H]3CSSC[C@H](NC(=O)[C@H](CCCNC(N)=O)NC(=O)[C@H](CCCNC(=N)N)NC(=O)[C@H](Cc4ccc(O)cc4)NC(=O)[C@@H]4CCCN4C(=O)[C@H]4CCCN4C(=O)[C@H](CCCCN)NC(=O)[C@H](CCCNC(N)=O)NC(=O)[C@H](Cc4ccc(O)cc4)NC3=O)C(=O)N[C@@H](CCCNC(=N)N)C(=O)NCC(=O)N3CCC[C@@H]3C(=O)N[C@@H](CCCNC(=N)N)C2=O)CC1
B2: Example 120 (peptide)
peptide: cyclo(YHTCRG[dP]RHWCYQK[dP]P)
modifications: disulfide 4-11
SMILES: C[C@@H](O)[C@@H]1NC(=O)[C@H](Cc2c[nH]cn2)NC(=O)[C@H](Cc2ccc(O)cc2)NC(=O)[C@@H]2CCCN2C(=O)[C@H]2CCCN2C(=O)[C@H](CCCCN)NC(=O)[C@H](CCC(N)=O)NC(=O)[C@H](Cc2ccc(O)cc2)NC(=O)[C@@H]2CSSC[C@H](NC1=O)C(=O)N[C@@H](CCCNC(=N)N)C(=O)NCC(=O)N1CCC[C@@H]1C(=O)N[C@@H](CCCNC(=N)N)C(=O)N[C@@H](Cc1c[nH]cn1)C(=O)N[C@@H](Cc1c[nH]c3ccccc13)C(=O)N2
B3: Example 117 (peptide)
peptide: cyclo(YR[Cit]CRG[dP]R[Orn]WCY[Cit]K[dP]P)
modifications: disulfide 4-11
SMILES: N=C(N)NCCC[C@@H]1NC(=O)[C@@H]2CSSC[C@H](NC(=O)[C@H](Cc3c[nH]c4ccccc34)NC(=O)[C@H](CCCN)NC(=O)[C@H](CCCNC(=N)N)NC(=O)[C@H]3CCCN3C(=O)CNC1=O)C(=O)N[C@@H](Cc1ccc(O)cc1)C(=O)N[C@@H](CCCNC(N)=O)C(=O)N[C@@H](CCCCN)C(=O)N1CCC[C@@H]1C(=O)N1CCC[C@H]1C(=O)N[C@@H](Cc1ccc(O)cc1)C(=O)N[C@@H](CCCNC(=N)N)C(=O)N[C@@H](CCCNC(N)=O)C(=O)N2
B4: Example 124 (peptide)
peptide: cyclo(YR[Cit]CRG[dP][IsOrn]R[2Nal]CY[Cit]K[dP]P)
modifications: disulfide 4-11
SMILES: CC(C)CN(CCC[C@@H]1NC(=O)[C@H]2CCCN2C(=O)CNC(=O)[C@H](CCCNC(=N)N)NC(=O)[C@@H]2CSSC[C@H](NC(=O)[C@H](Cc3ccc4ccccc4c3)NC(=O)[C@H](CCCNC(=N)N)NC1=O)C(=O)N[C@@H](Cc1ccc(O)cc1)C(=O)N[C@@H](CCCNC(N)=O)C(=O)N[C@@H](CCCCN)C(=O)N1CCC[C@@H]1C(=O)N1CCC[C@H]1C(=O)N[C@@H](Cc1ccc(O)cc1)C(=O)N[C@@H](CCCNC(=N)N)C(=O)N[C@@H](CCCNC(N)=O)C(=O)N2)CC(C)C
B5: Example 121 (peptide)
peptide: cyclo(YR[Cit]CRG[dP]RRWCY[Cit]Q[dP]P)
modifications: disulfide 4-11
SMILES: N=C(N)NCCC[C@@H]1NC(=O)[C@@H]2CSSC[C@H](NC(=O)[C@H](Cc3c[nH]c4ccccc34)NC(=O)[C@H](CCCNC(=N)N)NC(=O)[C@H](CCCNC(=N)N)NC(=O)[C@H]3CCCN3C(=O)CNC1=O)C(=O)N[C@@H](Cc1ccc(O)cc1)C(=O)N[C@@H](CCCNC(N)=O)C(=O)N[C@@H](CCC(N)=O)C(=O)N1CCC[C@@H]1C(=O)N1CCC[C@H]1C(=O)N[C@@H](Cc1ccc(O)cc1)C(=O)N[C@@H](CCCNC(=N)N)C(=O)N[C@@H](CCCNC(N)=O)C(=O)N2
B6: Example 127 (peptide)
peptide: cyclo(YR[Cit]CRG[dP]RR[2Nal]CY[Cit][NMeK][dP]P)
modifications: disulfide 4-11
SMILES: CN1C(=O)[C@H](CCCNC(N)=O)NC(=O)[C@H](Cc2ccc(O)cc2)NC(=O)[C@@H]2CSSC[C@H](NC(=O)[C@H](CCCNC(N)=O)NC(=O)[C@H](CCCNC(=N)N)NC(=O)[C@H](Cc3ccc(O)cc3)NC(=O)[C@@H]3CCCN3C(=O)[C@H]3CCCN3C(=O)[C@@H]1CCCCN)C(=O)N[C@@H](CCCNC(=N)N)C(=O)NCC(=O)N1CCC[C@@H]1C(=O)N[C@@H](CCCNC(=N)N)C(=O)N[C@@H](CCCNC(=N)N)C(=O)N[C@@H](Cc1ccc3ccccc3c1)C(=O)N2
B7: Example 125 (peptide)
peptide: cyclo(YR[Cit]CRG[dP][N(3-imidazol-1-ylpropyl)Gly]R[2Nal]CY[Cit]K[dP]P)
modifications: disulfide 4-11
SMILES: N=C(N)NCCC[C@@H]1NC(=O)CN(CCCn2ccnc2)C(=O)[C@H]2CCCN2C(=O)CNC(=O)[C@H](CCCNC(=N)N)NC(=O)[C@@H]2CSSC[C@H](NC(=O)[C@H](Cc3ccc4ccccc4c3)NC1=O)C(=O)N[C@@H](Cc1ccc(O)cc1)C(=O)N[C@@H](CCCNC(N)=O)C(=O)N[C@@H](CCCCN)C(=O)N1CCC[C@@H]1C(=O)N1CCC[C@H]1C(=O)N[C@@H](Cc1ccc(O)cc1)C(=O)N[C@@H](CCCNC(=N)N)C(=O)N[C@@H](CCCNC(N)=O)C(=O)N2
B8: Example 122 (peptide)
peptide: cyclo(YR[Cit]CRG[dP][Phe(4-F)]RWCY[Cit]K[dP]P)
modifications: disulfide 4-11
SMILES: N=C(N)NCCC[C@@H]1NC(=O)[C@@H]2CSSC[C@H](NC(=O)[C@H](Cc3c[nH]c4ccccc34)NC(=O)[C@H](CCCNC(=N)N)NC(=O)[C@H](Cc3ccc(F)cc3)NC(=O)[C@H]3CCCN3C(=O)CNC1=O)C(=O)N[C@@H](Cc1ccc(O)cc1)C(=O)N[C@@H](CCCNC(N)=O)C(=O)N[C@@H](CCCCN)C(=O)N1CCC[C@@H]1C(=O)N1CCC[C@H]1C(=O)N[C@@H](Cc1ccc(O)cc1)C(=O)N[C@@H](CCCNC(=N)N)C(=O)N[C@@H](CCCNC(N)=O)C(=O)N2
B9: Example 128 (peptide)
peptide: cyclo(YR[Cit]CRG[dP]RRWCY[Cit]K[dP]P)
modifications: disulfide 4-11
SMILES: N=C(N)NCCC[C@@H]1NC(=O)[C@@H]2CSSC[C@H](NC(=O)[C@H](Cc3c[nH]c4ccccc34)NC(=O)[C@H](CCCNC(=N)N)NC(=O)[C@H](CCCNC(=N)N)NC(=O)[C@H]3CCCN3C(=O)CNC1=O)C(=O)N[C@@H](Cc1ccc(O)cc1)C(=O)N[C@@H](CCCNC(N)=O)C(=O)N[C@@H](CCCCN)C(=O)N1CCC[C@@H]1C(=O)N1CCC[C@H]1C(=O)N[C@@H](Cc1ccc(O)cc1)C(=O)N[C@@H](CCCNC(=N)N)C(=O)N[C@@H](CCCNC(N)=O)C(=O)N2
B10: Example 23 (peptide)
peptide: cyclo(YR[Cit]FRF[dP]RR[2Nal]VY[Cit]K[dP]P)
SMILES: CC(C)[C@@H]1NC(=O)[C@H](Cc2ccc3ccccc3c2)NC(=O)[C@H](CCCNC(=N)N)NC(=O)[C@H](CCCNC(=N)N)NC(=O)[C@H]2CCCN2C(=O)[C@H](Cc2ccccc2)NC(=O)[C@H](CCCNC(=N)N)NC(=O)[C@H](Cc2ccccc2)NC(=O)[C@H](CCCNC(N)=O)NC(=O)[C@H](CCCNC(=N)N)NC(=O)[C@H](Cc2ccc(O)cc2)NC(=O)[C@@H]2CCCN2C(=O)[C@H]2CCCN2C(=O)[C@H](CCCCN)NC(=O)[C@H](CCCNC(N)=O)NC(=O)[C@H](Cc2ccc(O)cc2)NC1=O
B11: Example 116 (peptide)
peptide: cyclo(YR[Cit]CRG[dP]RRWCY[Cit]K[dP][A8″‑42])
modifications: disulfide 4-11
B12: Example 119 (peptide)
peptide: cyclo(Y[4Pal]TCRG[dP]RRWCYQK[dP]P)
modifications: disulfide 4-11
SMILES: C[C@@H](O)[C@@H]1NC(=O)[C@H](Cc2ccncc2)NC(=O)[C@H](Cc2ccc(O)cc2)NC(=O)[C@@H]2CCCN2C(=O)[C@H]2CCCN2C(=O)[C@H](CCCCN)NC(=O)[C@H](CCC(N)=O)NC(=O)[C@H](Cc2ccc(O)cc2)NC(=O)[C@@H]2CSSC[C@H](NC1=O)C(=O)N[C@@H](CCCNC(=N)N)C(=O)NCC(=O)N1CCC[C@@H]1C(=O)N[C@@H](CCCNC(=N)N)C(=O)N[C@@H](CCCNC(=N)N)C(=O)N[C@@H](Cc1c[nH]c3ccccc13)C(=O)N2
B13: Example 123 (peptide)
peptide: cyclo(YR[Cit]CRG[dP]RRWCY[Cit]K[dP]P)
modifications: disulfide 4-11
SMILES: N=C(N)NCCC[C@@H]1NC(=O)[C@@H]2CSSC[C@H](NC(=O)[C@H](Cc3c[nH]c4ccccc34)NC(=O)[C@H](CCCNC(=N)N)NC(=O)[C@H](CCCNC(=N)N)NC(=O)[C@H]3CCCN3C(=O)CNC1=O)C(=O)N[C@@H](Cc1ccc(O)cc1)C(=O)N[C@@H](CCCNC(N)=O)C(=O)N[C@@H](CCCCN)C(=O)N1CCC[C@@H]1C(=O)N1CCC[C@H]1C(=O)N[C@@H](Cc1ccc(O)cc1)C(=O)N[C@@H](CCCNC(=N)N)C(=O)N[C@@H](CCCNC(N)=O)C(=O)N2
B14: Example 115 (peptide)
peptide: cyclo(YR[Cit]CRG[dP]RR[2Nal]CYQK[dP]P)
modifications: disulfide 4-11
SMILES: N=C(N)NCCC[C@@H]1NC(=O)[C@@H]2CSSC[C@H](NC(=O)[C@H](Cc3ccc4ccccc4c3)NC(=O)[C@H](CCCNC(=N)N)NC(=O)[C@H](CCCNC(=N)N)NC(=O)[C@H]3CCCN3C(=O)CNC1=O)C(=O)N[C@@H](Cc1ccc(O)cc1)C(=O)N[C@@H](CCC(N)=O)C(=O)N[C@@H](CCCCN)C(=O)N1CCC[C@@H]1C(=O)N1CCC[C@H]1C(=O)N[C@@H](Cc1ccc(O)cc1)C(=O)N[C@@H](CCCNC(=N)N)C(=O)N[C@@H](CCCNC(N)=O)C(=O)N2
B15: Example 118 (peptide)
peptide: cyclo(YRTCRG[dP][4Pal]RWCYQK[dP]P)
modifications: disulfide 4-11
SMILES: C[C@@H](O)[C@@H]1NC(=O)[C@H](CCCNC(=N)N)NC(=O)[C@H](Cc2ccc(O)cc2)NC(=O)[C@@H]2CCCN2C(=O)[C@H]2CCCN2C(=O)[C@H](CCCCN)NC(=O)[C@H](CCC(N)=O)NC(=O)[C@H](Cc2ccc(O)cc2)NC(=O)[C@@H]2CSSC[C@H](NC1=O)C(=O)N[C@@H](CCCNC(=N)N)C(=O)NCC(=O)N1CCC[C@@H]1C(=O)N[C@@H](Cc1ccncc1)C(=O)N[C@@H](CCCNC(=N)N)C(=O)N[C@@H](Cc1c[nH]c3ccccc13)C(=O)N2

Biological target: human CXCR4 (human, UniProt P61073 1-352)
Sequence (P61073 whole entry): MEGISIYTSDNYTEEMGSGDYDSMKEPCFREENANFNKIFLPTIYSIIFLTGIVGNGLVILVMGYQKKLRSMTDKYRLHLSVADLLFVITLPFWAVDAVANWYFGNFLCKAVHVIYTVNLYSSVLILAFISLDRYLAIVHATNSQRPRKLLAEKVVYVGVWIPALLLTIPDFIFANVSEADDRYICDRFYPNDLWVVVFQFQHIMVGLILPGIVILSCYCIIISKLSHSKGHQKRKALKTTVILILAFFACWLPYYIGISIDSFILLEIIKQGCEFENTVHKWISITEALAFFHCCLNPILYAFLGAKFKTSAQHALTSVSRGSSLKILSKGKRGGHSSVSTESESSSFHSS
Assay: cell-based or functional assay

Row | Binder | IC50 (nM) Ca2+ assay (method 2) [nM] | IC50 (nM) Ca2+ assay (method 1) [nM]
1 | B1 | 19.5 | –
2 | B2 | 8.1 | –
3 | B3 | 3.4 | –
4 | B4 | 5.9 | –
5 | B5 | 6.5 | –
6 | B6 | 52.2 | –
7 | B7 | 330 | –
8 | B8 | 8.8 | –
9 | B9 | 4.5 | –
10 | B10 | – | 1550
11 | B11 | 14.5 | –
12 | B12 | 9.4 | –
13 | B13 | 10 | –
14 | B14 | 2.7 | –
15 | B15 | 7.6 | –
